The DeepSol protein solubility set

assay: soluble on expression in E. coli; label from the status in PepcDB or PDB records

Sequence | soluble on expression in E. coli
MSHLVYVSRVVAAPIERVWPHLRDFNGLSAWHPGVADSRLEEGGRDDAPGTVRFLSLNPSGYVRERLLMLDDAGRSLRYAIIETDLPMRDYVAGVDLCPVTEGGGTFAQWWADFDVVAGANRDEVARLVGEGVFAAGLQALDQYLRDRQG | soluble
MGLTIPVILNSVNNLSDARYAAGMGVEFMGFEVEASGERYVSPDLYKAITAWLSGVQTVTELAVLTPAVLTTIQEQYQPDFIQFESVEGISQSDLADLPCIQKIIISTGQEAKIFNNLAQYIFSEANYVLLELSDWTNWTEFQQLITEINTAYPVIWSLPIEKEDAALIQEIELKGISLKGGDEQRPGWKDLDQLIDILEALEEN | not soluble
MAAEGKAIAKVNDLVIFVPYVVPGDVVDLQIKRKKNKYAEAEAVKFHELSPVRAVPFCQHYGVCGGCKWQVLPYSEQIRYKQKQVEDNLRRIGKIELPEISPILGSAKTEFYRNKLEFTFSNKRWLTNDEVRQDVKYDQMNAVGFHIPGAFDKVLAIEKCWLQDDISNRIRNAVRDYAYEHDYSFINLRTQEGMLRNLIIRTSSTGELMVIVICKITEDHEMELFKQLLQFIADSFPEITSLLYIINNKCNDTINDLDVHVFKGKDHMFEEMEGLRFKVGPKSFYQTNSEQAYNLYKIAREFAGLTGKELVYDLYTGTGTIANFVSRQARQVIGIEYVPEAIEDAKVNAEINEIKNALFYAGDMKDMLTQEFINQHGRPDVIITDPPRAGMHQDVVDVILFAEPKRIVYVSCNPATQARDLQLLDGKYKVKAVQPVDMFPHTHHVENVVLLELR | not soluble
MPGLCTGPFAKGRCMSLLAQLDQKIAANGGLIVSCQPVPDSPLDKPEIVAAMALAAEQAGAVAIRIEGVANLQATRAVVSVPIIGIVKRDLEDSPVRITAYIEDVDALAQAGADIIAIDGTDRPRPVPVETLLARIHHHGLLAMTDCSTPEDGLACQKLGAEIIGTTLSGYTTPETPEEPDLALVKTLSDAGCRVIAEGRYNTPAQAADAMRHGAWAVTVGSAITRLEHICQWYNTAMKKAVL | soluble
HHMDEEYDVIVLGTGLTECILSGIMSVNGKKVLHMDRNPYYGGESSSITPLEELYKRFQLLEGPPETMGRGRDWNVDLIPKFLMANGQLVKMLLYTEVTRYLDFKVVEGSFVYKGGKIYKVPSTETEALASNLMGMFEKRRFRKFLVFVANFDENDPKTFEGVDPQNTSMRDVYRKFDLGQDVIDFTGHALALYRTDDYLDQPCLETINRIKLYSESLARYGKSPYLYPLYGLGELPQGFARLSAIYGGTYMLNKPVDDIIMENGKVVGVKSEGEVARCKQLICDPSYVPDRVRKAGQVIRIICILSHPIKNTNDANSCQIIIPQNQVNRKSDIYVCMISYAHNVAAQGKYIAIASTTVETTDPEKEVEPALELLEPIDQKFVAISDLYEPIDDGSESQVFCSCSYDATTHFETTCNDIKDIYKRMAGSAFDFENMKRKQNDVFGEADQ | soluble
MKVLFRSDSSSQIGFGHIKRDLVLAKQYSDVSFACLPLEGSLIDEIPYPVYELSSESIYELINLIKEEKFELLIIDHYGISVDDEKLIKLETGVKILSFDDEIKPHHCDILLNVNAYAKASDYEGLVPFKCEVRCGFSYALIREEFYQEAKENRKKKYDFFICMGGTDIKNLSLQIASELPKTKIISIATSSSNPNLKKLQKFAKLHNNIRLFIDHENIAKLMNESNKLIISASSLVNEALLLKANFKAICYVKNQESTATWLAKKGYEVEYKYLEHHHHHH | soluble
MSLRAKVTTKKYSVCEAPKVSEEELLSALVDRHKGKVQFIDFWATWCGGCRRTIKEYEPIKKELGENVAFVYLTGPSSIEKTWKILIQDIVGEHYWLNEKQWGYLWKHFQMKGLPMYLVIDKQGNIVKRFTHVTRKELEELLKQEINKEGHHHHHH | soluble
MSLVLGNAWLVLADRVIEHGWVAIADGVIAEVGEGDAPNGAKDMHGDLVMPGLVELHTDHLEAHYTPRPKVQWNPVAAVVSYDGQLATCGITTVLDSLRVWREEGAEEVDGQAIVLAGAISTARDAQLLRADHFLHLRCEIPMPNVVAEAKELIDRPDIRLMSLMDHTPGQRQFRDEEKLRDYYRGKGAGMTDAELDVMFARRVYCKENYADANMRAIVELAHRYEIPLASHDDTTPENVADAIRDRVAVAEFPTTLEAARELHQAGIDILMGAPNVVRGGSHSGNIAAIDLAHEGLLDILSSDYIPSSLLIAALQLPMRAPGIDLAAAIRTVTKAPAEAVGLNDRGEISKGKRADLIRVHVAHDVPAVRSVWREGQRVAEGHHHHHH | soluble
MCGRFVITSAPAAIRQLFGYADQPNFPSRYNIAPTQPVPVVIVDEGARRFRLMRWGLIPSWVKDPRMFSLLINARADTIQDKPAFRNAFRRRRCLVPADGYYEWKAGGSRKQPYFIHPAGGGPIGFAALWETWTGPNGEELDTVAIVTTAARGGLADLHDRVPVTIAPHHFARWLETDETDTEAVMALLGPPGEGEFVWHPVSTAVNRTANDNPQLILPIAAEEVEAPPPAVAKPAPPKRAARPKISADDSGQGSLFLEHHHHHH | soluble
MSLEYLLQAAGIPRSTFFYHQKRLSKPDKHAELKDAIRASFERNKHRYGYRRVLLDLRNQGWVVNHKLVYKLMCEMGLRAKIRQRRPYVSYTGTISHIADNKLDRKFTPDQPNTVFVSDVTEFRVAGRKVYLSPVMDLFDRSIVAHTVATSPSTALTTDSLSKAIAACEPEPGWMIHTDQGFQYQHASWRDLIGDNGGVQSMSRKANCYDNAVMENFFGHLKTEMYHGEVFDTVAEFNQVIDEYIQWYNTERIQQRLKGLTPMQYRNQTLEALTAEGHHHHHH | not soluble
LYAPLVSLMITVPVFGQHEYTHALVADLEREGADYLIVDNRGDYPRIGTERVSTPGENLGWAGGSELGFRLAFAEGYSHAMTLNNDTRVSKGFVAALLDSRLPADAGMVGPMFDVGFPFAVADEKPDAESYVPRARYRKVPAVEGTALVMSRDCWDAVGGMDLSTFGRYGWGLDLDLALRARKSGYGLYTTEMAYINHFGRKTANTHFGGHRYHWGASAAMIRGLRRTHGWPAAMGILREMGMAHHRKWHKSFPLTCPASC | not soluble
MSLGINRIDHAAVQVGDLGKALAWYEDVLGLTVLSRDDTTVHLACRGEAADITLVKGRQSLENFAFGVDDQEDLDRVESILKQEGVASERLNGDSRPGEGATLKFHLPSGHELRLCTGGAERRAGISDFDARGSHVPCDMDHINLLGAVDPSVMRDFLMMIGFKSSLNISVGGQLAGVWLRGSAYDHDIAYMRAVRPGDRLHHVAFAVEDGNHYFRLSDRLMDTGHRWEFGPGRHNGGLGKSTGFGTNNYAYAFDPFGNRNEFSSGMEQFSDDTPPLDCHIAPEQLTEVMNGWGYEMAETFMTVGSEGHHHHHH | not soluble
MRGWHHHHHHGIRMRARYPSVVDVYSVEQFRNIMSEDILTVAWFTAVWCGPCKTIERPMEKIAYEFPTVKFAKVDADNNSEIVSKCRVLQLPTFIIARSGKMLGHVIGANPGMLRQKLRDIIKDN | soluble
HHHHHHDEKRRPKRREIPLKVLVKAVLFACMLMRKTMASRVRVTILFATETGKSEALAWDLGALFSCAFNPKVVCMDKYRLSCLEEERLLLVVTSTFGNGDCPGNGEKLKKSLFMLKELNNKFRYAVFGLGSSMYPRFCAFAHDIDQKLSHLGASQLTPMGEGDELSGQEDAFRSWAVQTFKAACETFDVRGKQHIQIPKLYTSNVTWDPHHYRLVQDS | soluble
MGSDKIHHHHHHMASMFNRVPPLHLLVAFEAAARLGSFARAAEELSVTPSAVSHRIKNLEELWGEDLFVRSNAALRLTAAGTRYLRNVQDALKSLNELARPEYNKMRTRLRVAIPPTFGRQHLVPRLPEFGALYPHIDIELHLAIPFLDVKAEDTDVEIRYGTGRYPDLKTTKLLVEPVFPACGREYYERVNGRAITKPEHLHGLVLLRSPLEPWKPWFETAGLDWPEPQTGPQLNDIGLMLEAVASNQGVALVRQRMARHWLSLGQMVRLLDIESVSPHGYYIVEREQAPLKPEARYFVDWLLSLDW | not soluble
MSLTATAPCPYACGLCSLHENHSALVNIVVTNRCDLSCFYCFFYAERAGYIYEPSIEQIKFMVRQVARQRQGSDVHVNIQITGGEPTVREDLVDVVKAIREAGAHYIQLNTNGINVARRYLDNPPGAIDYVRSLREAGVSVVYMSFDGVTPKVNWKNHYEAPFALKAFQEGGLDNVVLVPTVIRTINDHEVGDIIRFAGKHIDVVRGVNFQPVSLTGMMRKHERERMRITIPDVIKRIEEQTDGQIPMDAWYPVPVVAKFVKAIDALTGKLYDTLSNHPACGSATYVFALERDRYGVPRRFLPITEVIDVEGFIEFLDEERIKLEHNSGRLSRLKVAAEIVWRARRFVDFDREGHHHHHH | not soluble
MGSDKIHHHHHHMIIELFGPPGAGKTTLLRGLCQGMAKHGINVKTVNGYRLIEYGSAQEDGPEVRHGIGRIGKKIATSGPVLLSTLPKDGVAARLLASIPLRSLTWSWRMKVDIALLCESWRQAQESEGYFIFEEGIIQALCALVVLARTPSIDVVRDCLAFLPRPDLLIQLDAPQETLRRRLMDRHAQQPLLEVLLFELGVDRGLRQADISRDIGKCLRQDGWPLIKVNGAEPHDLDKIITRILEEHETVPV | not soluble
MAEPVRLGRKRPLPVCPNPLFVRWLTEWRDEAASRGRHTRFVFQKALRSLQRYPLPLRSGKEAKILQHFGDRLCRMLDEKLKQHLASGGD | soluble
MAHHHHHHMPFSLGELQNVFLDALTGCPPDAPQQTRDTAVTVAGASIFAGSWQPLESTRVPVRAYLRGTGEFDTEDSCRRAVMRVVDATLNDVLNDDAVNAFIGAKACESADIVGACEHILRKYLLWMLDGYLHYDGTPQCPFYDALKSTVCAFSVEWGQTFGPMFAEAQSPDEFFSLLVTRGAQHHATAVATNPDDAKVRMATAMSIQVFLMAKTYSPSTPFPSRVAL | soluble
MQANGVWSLQPLADMSAAEFRDWQVLLENRTGVVLNEQRRTFLQASLTARMRELGIGDYHSYYRQVTDGPRGAVEWATLLDRLTVQETRFFRHPPSFELLERYLGERLRREGMPRPWALWSVGCSSGEEPYSLAMCAAQVLRGQEREDFFGVTGTDISLHALQRARQANYPARKLEQLEAGLVERYCERQADGSFSVKTILTERVCCARLNVLDLAKAPWSGMDVIFCQNLLIYFRRWRRREILNRLAERLAPGGLLVIGVGEVVDWSHPELEPVADERVLAFTR | not soluble
MNNPAMTIKGEQAKKQLIAAALAQFGEYGMNATTREIAAQAGQNIAAITYYFGSKEDLYLACAQWIADFIGEQFRPHAEEAERLFAQPQPDRAAIRELILRACRNMIKLLTQDDTVNLSKFISREQLSPTAAYHLVHEQVISPLHSHLTRLIAAWTGCDANDTRMILHTHALIGEILAFRLGKETILLRTGWTAFDEEKTELINQTVTCHIDLILQGLSQRSL | soluble
CTRAVYLGPDRMVVTGRTMDWKEDIMSNIYVFPRGMQRAGHNKEKTVNWTSKYGSVIATGYDIGTCDGMNEKGLVASLLFLPESVYSLPGDTRPAMGISIWTQYVLDNFATVREAVDEMKKETFRIDAPRMPNGGPESTLHMAITDETGNTAVIEYLDGKLSIHEGKEYQVMTNSPRYELQLAVNDYWKEVGGLQMLPGTNRSSDRFVRASFYIHAIPQTADAKIAVPSVLSVMRNVSVPFGINTPEKPHISSTRWRSVSDQKNKVYYFESTLTPNLFWLDLKKIDFSPKAGVKKLSLTKGEIY | not soluble
MPDYLVVLQAAWIVRKARSVEDAMNIAVAEAGKKLNPDLDFVKIDVGDTACPKCNSPLKAVFMVAGVALVGLIFEMKVFNAKSPEHAAKIAKYEIGKRMPRIPLEVIEVAEIE | not soluble
